Test results published in patent publication US9289500B2, “Saccharide-peptide hydrogels” (The Regents of the University of California, priority 2013, dated 2016).
Bridges are numbered along the chain shown (N, C = ends). Where no end group is shown, it is not given here. The star is where a group is joined. Acm = CC(=O)NC*

Columns and labels:
IFN-γ = molecular target: T1, IFN-γ (Homo sapiens, UniProt P01579); details: cited from earlier work
T1 sequence (P01579 24-161 limits assumed): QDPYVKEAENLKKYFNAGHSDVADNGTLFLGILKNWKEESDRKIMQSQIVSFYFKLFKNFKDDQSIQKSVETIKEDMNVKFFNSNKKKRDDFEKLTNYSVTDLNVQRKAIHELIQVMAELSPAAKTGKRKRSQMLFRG

TNF-α [1] = experiment: TNF-α mediated PUMA mRNA up-regulation in islets; format: cell-based; details: human islets
Description: PUMA and INS Pre-mNRA as markers for islet health in response to cytokine insults. Inflammation mediated proinflammatory cytokines, including Tumor necrosis factor (TNF)-α, Interleukin(IL)-1β, Interferon (IFN)-γ, play an important role on β cell death, leading to primary graft nonfunction. […] Elevated PUMA mRNA by TNF-α or the TNF-α+ and IFN-γ combination correlated with decreased islet function, as indicated by decreased preproinsulin (INS) pre-mRNA expression (r=−0.45, p<0.001) assessed by the single islet gene expression assay (RT-PCR). TNF-α receptor blocker, Etanercept, abolished TNF-α mediated PUMA mRNA up-regulation in human islets. PUMA mRNA and INS pre-mRNA expressions are used herein as markers for islet health under cytokine insults.

TNF-α [2] = molecular target: TNF-α (Homo sapiens, UniProt P01375); details: cited from earlier work
[3] = test system: Peripheral blood mononuclear cells (PBMC); experiment: In vitro biocompatibility: stimulation assay of PBMC, cytokine mRNA; format: cell-based, LEW rat; details: IFN-γ, CXCL1, IL6, GMCSF mRNA levels
Method: In Vitro Biocompatibility Assay of SP Hydrogel by Stimulation Assay of Peripheral Blood Mononuclear Cells (PBMC). PBMC from a normal LEW rat were isolated using Histopaque (Sigma-Aldrich, St. Louis, Mo.). 1×10^6 Cells were incubated with either 0.5 μL phosphate buffered saline (PBS), 0.5 mg vicryl suture, 0.5 mg hydrogel, 0.5 mg VS-polymer, 0.5 mg Cys-polymer, or 5 μg of LPS for 20 hours at 37° C. Differences in Ct between the target and control (Actb) mRNA (ΔCt) were used to quantify the relative level for each sample's mRNA expression.
Ex vivo biocompatibility of soluble polymers and SP hydrogel: An SP hydrogel was formed by in situ crosslinking by mixing a cysteine-functionalized (Cys-polymer) and a vinyl sulfone-functionalized (VS-polymer) saccharide-peptide copolymer under mild conditions, according to protocols presented in Chawla et al., Biomacromolecules (2011) 12:560-567, and Chawla et al., Biomaterials (2012) 33:6052-6060, which are incorporated herein in their entirety. […] The mRNA expression of inflammatory cytokines released by PBMC, including TNF-α (killer cell), IFN-γ (T-cell activation), CXCL1 (IL-8 analog, recruiter), IL6 (killer cell), and GMCSF (antigen presentation) was assessed to detect any immune stimulatory effect.

Sequence of TNF-α (Homo sapiens, UniProt P01375) (P01375 77-233 limits assumed, species assumed): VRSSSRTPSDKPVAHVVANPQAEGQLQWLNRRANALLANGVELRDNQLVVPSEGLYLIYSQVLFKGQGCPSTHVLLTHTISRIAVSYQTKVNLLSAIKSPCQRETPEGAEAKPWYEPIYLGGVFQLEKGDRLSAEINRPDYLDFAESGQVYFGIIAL

In the case of “AYC(acm)RDGKIGPPKLDIRKEEKQI (AYC(Acm)RDGKIGPPKLDIRKEEKQI) [antagonizing peptide for IFN-γ; acm: acetamidomethyl]”, the “antagonism of IFN-γ” value (IFN-γ) is given as “potent antagonists”.
For Etanercept, the “TNF-α mediated PUMA mRNA up-regulation” value (TNF-α [1]) was “abolished”.
In the case of “YCWSQYLCY (disulfide 2-8 (inferred)) [antagonizing peptide for TNF-α]”, the “antagonism of TNF-α” value (TNF-α [2]) is given as “potent antagonists”.
In the case of lipopolysaccharide [LPS], the “stimulatory effect / mRNA response compared to LPS” value [3] was “highest stimulatory effect”.
